Consider 5 molecules from patent US20220218785A1 (ALPINE IMMUNE SCIENCES, published 2022).

By IC50 is commonly meant the midpoint of a concentration-inhibition curve. Broadly, the EC50 (read off the curve) is the concentration needed to bring the measured effect to its halfway point. For orientation: EC50 means the midpoint of the concentration-response curve.

For test [1], the target named is T1, human CTLA-4 (human, UniProt P16410 36-223).
T1 construct: whole, on cells
The test can be described thus: flow cytometry, cells with human CTLA-4; protein from CHO. In general terms: In flow cytometry, cells or beads pass a laser one at a time.

For a further test, the target named is human CD28 (human) (UniProt P10747). The test can be described thus: flow cytometry, cells with human CD28; protein from CHO.
In test [2] the target is T2, human ICOS (human, UniProt Q9Y6W8 21-199).
T2 construct: whole, on cells
T2 sequence (looked up): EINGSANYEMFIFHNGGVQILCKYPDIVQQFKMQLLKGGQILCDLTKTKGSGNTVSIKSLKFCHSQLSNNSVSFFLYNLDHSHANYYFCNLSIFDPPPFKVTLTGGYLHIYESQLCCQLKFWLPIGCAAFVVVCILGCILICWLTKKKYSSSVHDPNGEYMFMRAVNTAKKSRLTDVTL
The test is described as follows: flow cytometry, cells with human ICOS; protein from CHO.

Test [3] has as its target human CD28, full-length, on transfected cells (human) (UniProt P10747). The test is described as follows: flow cytometry on transfected HEK293 cells.
The target in test [4] is T3, ICOSL labeled with AlexaFluor-647 (UniProt O75144 19-256, limits assumed, labeled with AlexaFluor-647).
T3 sequence (looked up): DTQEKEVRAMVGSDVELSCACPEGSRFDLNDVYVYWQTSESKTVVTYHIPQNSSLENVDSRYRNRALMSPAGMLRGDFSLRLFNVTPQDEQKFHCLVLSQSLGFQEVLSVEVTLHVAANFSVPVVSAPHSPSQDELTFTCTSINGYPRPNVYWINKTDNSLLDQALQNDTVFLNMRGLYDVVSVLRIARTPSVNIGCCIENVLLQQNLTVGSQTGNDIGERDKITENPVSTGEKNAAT
The test is described as follows: competition, flow cytometry: labelled ICOSL on CHO cells expressing ICOS.

Test [5] deals with T4, CD28 on CHO cells expressing CD28 (UniProt P10747 19-220, limits assumed).
T4 construct: whole, on cells
The test is described as follows: competition, flow cytometry: competitor CD80 on CHO cells expressing CD28.

In test [6] the target is T5, ICOS on CHO cells expressing ICOS (UniProt Q9Y6W8 21-199, limits assumed).
T5 construct: whole, on cells
T5 sequence (looked up): T2 sequence (looked up)
The test can be described thus: competition, flow cytometry: competitor labelled ICOSL on CHO cells expressing ICOS.

The target of test [7] is T5, ICOS on CHO cells expressing ICOS. The test can be described thus: flow cytometry on CHO cells expressing ICOS, bound protein detected with anti-human IgG-PE, median fluorescence against [pM].
In test [8] the target is T1, human CTLA-4. The test is described as follows: flow cytometry, transfected HEK293 cells. The method, then: (§1) Binding was assessed substantially as described in Example 1 on transfected HEK293 cells generated to express the full-length surface ligands CD28, ICOS or CTLA-4 from human, cynomolgus monkey, rat or mouse. Transfection was carried out using a transient transfection system (Life Technologies, USA). As a control, binding to mock (non-transfected) cells also was assessed.

The target of another test is T6, cynomolgus monkey CTLA-4 (cynomolgus monkey, UniProt G7PL88 36-223).
T6 construct: whole, on cells
The test is described as follows: flow cytometry, transfected HEK293 cells. Here is the method: as §1

Another test concerns the target T7, mouse CTLA-4 (mouse, UniProt P09793 36-223).
T7 construct: whole, on cells
The test can be described thus: flow cytometry, transfected HEK293 cells. The method, then: as §1

A further test has as its target T8, mouse CD28 (mouse, UniProt P31041 20-218).
T8 construct: whole, on cells
The test can be described thus: flow cytometry, transfected HEK293 cells. Here is the method: as §1

For another test, the target named is T9, rat CD28 (rat, UniProt P31042 20-218).
T9 construct: whole, on cells
The test can be described thus: flow cytometry, transfected HEK293 cells. The method, then: as §1

The next test addresses T10, human CD28 (human, UniProt P10747 19-220).
T10 construct: whole, on cells
The test is described as follows: flow cytometry, transfected HEK293 cells. Here is the method:
as §1

The target of another test is T11, cynomolgus monkey ICOS (cynomolgus monkey, UniProt A0A2K5TQR6 21-168).
T11 sequence: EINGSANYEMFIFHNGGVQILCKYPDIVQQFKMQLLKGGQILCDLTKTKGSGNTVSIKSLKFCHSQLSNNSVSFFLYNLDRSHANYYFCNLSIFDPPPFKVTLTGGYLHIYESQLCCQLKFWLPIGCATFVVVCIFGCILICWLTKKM
The test can be described thus: flow cytometry, transfected HEK293 cells. The method, then:
as §1

The target of another test is rat CTLA-4 (rat, UniProt Q62859 36-223). The test is described as follows: flow cytometry, transfected HEK293 cells. The method, then:
as §1

The target in another test is T12, mouse ICOS (mouse, UniProt Q9WVS0 21-200).
T12 construct: whole, on cells
T12 sequence (looked up): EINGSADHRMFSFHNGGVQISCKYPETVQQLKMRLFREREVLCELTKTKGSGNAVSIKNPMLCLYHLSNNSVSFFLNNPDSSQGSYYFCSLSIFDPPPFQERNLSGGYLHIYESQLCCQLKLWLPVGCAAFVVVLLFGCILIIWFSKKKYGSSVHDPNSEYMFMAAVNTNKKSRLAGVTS
The test can be described thus: flow cytometry, transfected HEK293 cells. Here is the method: as §1

In another test the target is T13, cynomolgus monkey CD28 (cynomolgus monkey, UniProt Q0PDN3 19-220).
T13 construct: whole, on cells
The test can be described thus: flow cytometry, transfected HEK293 cells. The method, then: as §1

A further test deals with T14, rat ICOS (rat, UniProt Q9R1T7 21-200).
T14 construct: whole, on cells
T14 sequence (looked up): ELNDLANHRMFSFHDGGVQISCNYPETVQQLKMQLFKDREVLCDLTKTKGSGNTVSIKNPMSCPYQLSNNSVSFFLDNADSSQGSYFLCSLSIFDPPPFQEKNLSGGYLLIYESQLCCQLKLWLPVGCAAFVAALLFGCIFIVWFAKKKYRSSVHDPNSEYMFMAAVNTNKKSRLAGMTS
The test can be described thus: flow cytometry, transfected HEK293 cells. Here is the method:
as §1

Test [9] addresses T2, human ICOS. The test is described as follows: flow cytometry, transfected HEK293 cells. The method, then:
as §1

In test [10] the target is T4, CD28 on CHO cells expressing CD28. The test can be described thus: flow cytometry on CHO cells expressing CD28, bound protein detected with anti-human IgG-PE, median fluorescence against [pM].
Test [11] has the same target. The test can be described thus: competition, flow cytometry: competitor labelled CD86 on CHO cells expressing CD28.
Test [12] has as its target T15, human ICOS, full-length, on transfected cells (human, UniProt Q9Y6W8 21-199).
T15 construct: whole, on cells; also called ICOS tfxn
T15 sequence (looked up): T2 sequence (looked up)
The test is described as follows: flow cytometry on CHO cells expressing ICOS, anti-human IgG-PE.

Test [13] deals with T16, human CD28, full-length, on transfected cells (human, UniProt P10747 19-220).
T16 construct: whole, on cells; also called CD28 tfxn
The test can be described thus: flow cytometry on CHO cells expressing CD28, anti-human IgG-PE.

The target of test [14] is T17, mouse ICOS, full-length, on transfected HEK293 cells (mouse, UniProt Q9WVS0 21-200).
T17 construct: whole, on cells
T17 sequence (looked up): T12 sequence (looked up)
The test can be described thus: flow cytometry on transfected HEK293 cells. The method, then: (§2) Binding studies were carried out on transfected HEK293 cells generated to express the full-length mammalian (human) surface ligands, CD28, ICOS or CTLA-4, using a transient transfection system (Life Technologies, USA). As a control, binding to mock (non-transfected) cells also was assessed. For staining by flow cytometry, 200,000 cells of appropriate transient transfection or negative control (mock) were plated in 96 well round bottom plates, and, then incubated in staining buffer (PBS, phosphate buffered saline; 1% BSA, bovine serum albumin; and 0.1% sodium azide) for 20 minutes to block non-specific binding. Cells were resuspended in staining buffer containing 100 nM to 1 nM variant immunomodulatory protein in 50 μL. Mean Fluorescence Intensity (MFI) was calculated for each transfectant and negative parental line with Cell Quest Pro software (Becton Dickinson, USA) or a Hypercyt flow cytometer (Intellicyte, USA).
as §1

In test [15] the target is T18, rat ICOS, full-length, on transfected HEK293 cells (rat, UniProt Q9R1T7 21-200).
T18 construct: whole, on cells
T18 sequence (looked up): T14 sequence (looked up)
The test can be described thus: flow cytometry on transfected HEK293 cells. The method, then: as §2, §1

In test [16] the target is T19, mouse CTLA-4, full-length, on transfected HEK293 cells (mouse, UniProt P09793 36-223).
T19 construct: whole, on cells
The test is described as follows: flow cytometry on transfected HEK293 cells. Here is the method: as §2, §1

In test [17] the target is T20, rat CD28, full-length, on transfected HEK293 cells (rat, UniProt P31042 20-218).
T20 construct: whole, on cells
The test is described as follows: flow cytometry on transfected HEK293 cells. Here is the method: as §2, §1

The target of test [18] is T21, human CTLA-4, full-length, on transfected cells (human, UniProt P16410 36-223).
T21 construct: whole, on cells; also called CTLA-4 tfxn
The test is described as follows: flow cytometry on transfected HEK293 cells. Here is the method:
as §2, §1

Test [19] has as its target T22, mouse CD28, full-length, on transfected HEK293 cells (mouse, UniProt P31041 20-218).
T22 construct: whole, on cells
The test can be described thus: flow cytometry on transfected HEK293 cells. Here is the method:
as §2, §1

Turning to “ICOSL ECD Truncation #8 with N207G/L208G and N52H/N57Y/Q100R/C198R and Y151H (from UniProt O75144 19-224) (Fc fusion)”, the MFI stood at 368000 MFI with human CTLA-4 [1], 94200 MFI in the test with human CD28 (human) and 143000 MFI in the test with human ICOS [2]. In addition, the MFI (ΔWT) was found to be 48.6 fold vs WT with human CTLA-4 [1] and 54.5 fold vs WT in the test with human CD28 (human).
In the case of “variant ICOSL ECD-Fc M10I, S13G, N52H, N57Y, D77G, V110A, H129P, I143V, F172S, V193M, C198R (Fc fusion)”, the MFI in test [3] was determined as 6000 MFI.

B1: prezalumab (AMG-557; anti-ICOSL, Creative Biolabs) (antibody, V domains shown)
VH: EVQLVESGGGLVQPGGSLRLSCAASGFTFSSYWMSWVRQAPGKGLEWVAYIKQDGNEKYYVDSVKGRFTISRDNAKNSLYLQMNSLRAEDTAVYYCAREGILWFGDLPTFWGQGTLVTVSS
VL: DIQMTQSPSSLSASVGDRVTITCRASQGISNWLAWYQQKPEKAPKSLIYAASSLQSGVPSRFSGSGSGTDFTLTISSLQPEDFATYYCQQYDSYPRTFGQGTKVEIK
In turn, B1 returned an IC50 in [4] of 23.3 nM.

B2: variant ICOSL IgV-Fc (variant ICOSL IgV N52H/N57Y/Q100R, SEQ ID NO: 36, fused to an inert human IgG1 Fc, e.g. SEQ ID NO: 42) (Fc fusion)
chain: DTQEKEVRAMVGSDVELSCACPEGSRFDLNDVYVYWQTSESKTVVTYHIPQHSSLEYVDSRYRNRALMSPAGMLRGDFSLRLFNVTPQDEQKFHCLVLSRSLGFQEVLSVEVTLHVAANFSVEPKSSDKTHTCPPCPAPEAEGAPSVFLFPPKPKDTLMISRTPEVTCVVVDVSHEDPEVKFNWYVDGVEVHNAKTKPREEQYNSTYRVVSVLTVLHQDWLNGKEYKCKVSNKALPAPIEKTISKAKGQPREPQVYTLPPSRDELTKNQVSLTCLVKGFYPSDIAVEWESNGQPENNYKTTPPVLDSDGSFFLYSKLTVDKSRWQQGNVFSCSVMHEALHNHYTQKSLSLSPG
notes: also called variant ICOSL vIgD-Fc fusion molecule
As for B2, the values for the IC50 in test [5], in test [6] and in test [11] were 1 nM, 4.3 nM and 0.7 nM, respectively. The “EC50 (read off the curve)” value in [7] and in test [10] was roughly 3 nM each time. Moreover, the EC50 with human CTLA-4 [8] turned out to be 0.68 nM; with cynomolgus monkey CTLA-4, 0.704 nM; with mouse CTLA-4, 1.11 nM; in the test with mouse CD28 it was 1.15 nM; with rat CD28 it was 1.06 nM; in the test with human CD28 it was 0.648 nM. In addition, the EC50 in the test with cynomolgus monkey ICOS worked out at 0.579 nM; with rat CTLA-4, 0.793 nM; in the test with mouse ICOS, 1.43 nM; in the test with cynomolgus monkey CD28, 0.44 nM; with rat ICOS, 1.03 nM; with human ICOS [9], 0.633 nM.

B3: variant ICOSL IgV-Fc (N52H/N57Y/Q100R) (Fc fusion)
chain: DTQEKEVRAMVGSDVELSCACPEGSRFDLNDVYVYWQTSESKTVVTYHIPQHSSLEYVDSRYRNRALMSPAGMLRGDFSLRLFNVTPQDEQKFHCLVLSRSLGFQEVLSVEVTLHVAANFSVGGGGSGGGGSEPKSSDKTHTCPPCPAPEAEGAPSVFLFPPKPKDTLMISRTPEVTCVVVDVSHEDPEVKFNWYVDGVEVHNAKTKPREEQYNSTYRVVSVLTVLHQDWLNGKEYKCKVSNKALPAPIEKTISKAKGQPREPQVYTLPPSRDELTKNQVSLTCLVKGFYPSDIAVEWESNGQPENNYKTTPPVLDSDGSFFLYSKLTVDKSRWQQGNVFSCSVMHEALHNHYTQKSLSLSPG
notes: also called variant ICOSL vIgD-Fc fusion molecule; ICOS-IgV Fc (N52H/N57Y/Q100R)
B3: the binding result in test [12], in [13], in [14], in test [15], in test [16] and in [17] was “binds” throughout. For the same molecule, the binding result in [18] and in test [19] was “binds” each time.
